Experimental data taken from patent US20110256132A1 (published 2011).
Where two headings read alike, the source gives them in different places.

Legend:
[1] = molecular target: T1, mature myostatin (recombinant, dimeric) (mouse polyprotein used for in-house …, UniProt O08689 268-376); experiment: BIAcore, medium density myostatin surface, antibody analyte, 1:1 model (poor fits)
T1 construct: also called GDF-8; recombinant myostatin
T1 sequence: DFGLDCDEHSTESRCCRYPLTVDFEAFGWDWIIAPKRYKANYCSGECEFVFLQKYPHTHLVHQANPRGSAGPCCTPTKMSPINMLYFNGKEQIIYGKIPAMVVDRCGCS
Experimental: (§1) Purified H0L0, H1L2 and H2L2 bound recombinant myostatin by BIAcore™ Recombinant myostatin was immobilised at three different densities (low, medium and high, to give R-max values of approximately 35, 120 and 350 RU's respectively) onto a BIAcore™ chip. Antibodies were passed over at 256, 64, 16, 4 and 1 nM. 0 nM antibody was used for double referencing and data was fitted to the 1:1 model.

[2] = molecular target: T1, mature myostatin (recombinant, dimeric); experiment: BIAcore, low density myostatin surface, antibody analyte, 1:1 model
Experimental: as §1

[3] = molecular target: T1, mature myostatin (recombinant, dimeric); experiment: BIAcore, high density myostatin surface, antibody analyte, 1:1 model (poor fits)
Experimental: as §1

[4] = molecular target: T1, mature myostatin (recombinant, dimeric); experiment: cell-based or functional assay
[5] = molecular target: T1, mature myostatin (recombinant, dimeric); experiment: BIAcore, low density myostatin surface, methods as in 4.3
[6] = molecular target: T1, mature myostatin (recombinant, dimeric); experiment: competition ELISA, biotinylated myostatin on streptavidin, competitor 10B3
Experimental: (§2) A 96-well ELISA plate was coated at 4° C. overnight with 2.5 μg/ml polyclonal Antibody to Myostatin (R&D Systems AF788). This plate was then washed 3-times in wash buffer (PBS, 0.1% Tween-20) and blocked for 1 hour at room temperature with block solution (PBS, 0.1% Tween-20+1% bovine serum albumin [BSA]). Then, myostatin was added at 1 μg/ml in block buffer during 1 hour followed by 3-times in wash buffer. Antibodies were then titrated out to a suitable concentration range (approximately 10 to 0.01 μg/ml), added to the plate and incubated for 1 hour at room temperature. The plate was then washed 3-times in wash buffer. An anti-human kappa light chain HRP-conjugated antibody (Sigma A7164, used according to the manufacturer's instructions) was used to detect binding of humanized or chimeric antibodies, such as 10B3 chimera (HcLc) or H0L0. The plate was then washed 3-times in wash buffer and developed with an OPD substrate (according to the manufacturer's instructions) and read at 490 nm on a plate reader.
(§3) The protocol set out in 6.7 was used but the plates were initially coated at 4° C. overnight with 5 μg/ml of streptavidin. Biotinylated myostatin was added at 0.3 μg/ml block buffer during 1 hour followed by 3-times in wash buffer. 10B3 (final concentration of 0.2 μg/ml) was added into each well and mixed with antibodies titrated out to a suitable concentration range (approximately 10 to 0.01 μg/ml). An anti-mouse HRP-conjugated antibody (DAKO P0260, used according to the manufacturer's instructions) was used to detect binding of the 10B3 antibody.

[7] = molecular target: T1, mature myostatin (recombinant, dimeric); experiment: competition ELISA, directly coated myostatin, competitor 10B3
Experimental: as §2
as §3, with “0.2” for “5”, “of” for “of streptavidin. Biotinylated”, “(recombinant in-house, see 1.1 above).” for “was added at 0.3 μg/ml block buffer during 1 hour followed by 3-times in wash buffer.”, “0.3” for “0.2”

[8] = molecular target: T1, mature myostatin (recombinant, dimeric); experiment: cell-based or functional assay; remark: listed apart in the source
[9] = molecular target: T1, mature myostatin (recombinant, dimeric); experiment: competition ELISA, myostatin captured by polyclonal antibody, competitor 10B3
Experimental: as §2
The protocol set out in 6.7 was used with the addition of 10B3 (final concentration of […]) to each well and mixed with the antibodies titrated out to a suitable concentration range (approximately 10 to 0.01 μg/ml). An anti-mouse HRP-conjugated antibody (DAKO P0260, used according to the manufacturer's instructions) was used to detect binding of the 10B3 antibody.

[10] = molecular target: T1, mature myostatin (recombinant, dimeric); experiment: cell-based or functional assay; remark: listed apart in the source
[11] = molecular target: T1, mature myostatin (recombinant, dimeric); experiment: BIAcore T100 full kinetics, high density myostatin surface, Bivalent model
Experimental: The CDRH3 variants were passed over all three surfaces at 256 nM, 64 nM, 16 nM, 4 nM, 1 nM with a buffer injection (i.e. 0 nM) used for double referencing, regeneration was using 100 mM phosphoric acid. The data was fitted to the Bivalent model inherent to the T100 Biacore machine and was run using HBS-EP at 25° C.

B1: H1L2 (antibody, human IgG1, kappa)
heavy: not shown
light: DIQMTQSPSSLSASVGDRVTITCKASQDINSYLSWFQQKPGKAPKSLIYRANRLVDGVPSKFSGSGSGTDYTLTISSLQPEDFATYYCLQCDEFPLTFGQGTKLEIKRTVAAPSVFIFPPSDEQLKSGTASVVCLLNNFYPREAKVQWKVDNALQSGNSQESVTEQDSKDSTYSLSSTLTLSKADYEKHKVYACEVTHQGLSSPVTKSFNRGEC
notes: Humanised, human IgG1 wild type/kappa
Kd [1]: 5.06 nM | koff [1]: 0.000693 s⁻¹ | kon [1]: 137000 M⁻¹ s⁻¹ | Kd [2]: 15.1 nM | koff [2]: 0.00332 s⁻¹ | kon [2]: 220000 M⁻¹ s⁻¹ | Kd [3]: 2.42 nM | koff [3]: 0.000223 s⁻¹ | kon [3]: 92200 M⁻¹ s⁻¹

B2: H2L2 N54Q & C91S (H2L2-N54Q-C91S) (antibody, human IgG1, kappa, V domains shown)
VH: QVQLVQSGAEVKKPGASVKVSCKASGYSFTGYFMHWVRQAPGQGLEWMGNIYPYQGVSNYNQRFKARVTMTTDTSTSTAYMELRSLRSDDTAVYYCARRYYYGTGPADWYFDVWGQGTLVTVSS
VL: DIQMTQSPSSLSASVGDRVTITCKASQDINSYLSWFQQKPGKAPKSLIYRANRLVDGVPSKFSGSGSGTDYTLTISSLQPEDFATYYCLQSDEFPLTFGQGTKLEIKR
Mean IC50, A204 in vitro activity assay [4]: 10.4 nM | Kd [5]: 33.3 nM

B3: H2L2-C91S_F100G_Y (antibody, human IgG1, kappa)
heavy: not shown
light: DIQMTQSPSSLSASVGDRVTITCKASQDINSYLSWFQQKPGKAPKSLIYRANRLVDGVPSKFSGSGSGTDYTLTISSLQPEDFATYYCLQSDEFPLTFGQGTKLEIKRTVAAPSVFIFPPSDEQLKSGTASVVCLLNNFYPREAKVQWKVDNALQSGNSQESVTEQDSKDSTYSLSSTLTLSKADYEKHKVYACEVTHQGLSSPVTKSFNRGEC
notes: Fc not disabled
ranking order top (1) to bottom (5), myostatin competition ELISA [6]: 2 | ranking order top (1) to bottom (5), myostatin competition ELISA [7]: 2 | Mean IC50, A204 in vitro activity assay (5 nM myostatin) [8]: 3.64 nM | ranking order top (1) to bottom (5), myostatin competition ELISA [9]: 4 | Mean IC50, A204 in vitro activity assay [10]: 11.1 nM

B4: H2L2-C91S_G99D (antibody, human IgG1, kappa, name in Kabat numbering, V domains shown)
VH: QVQLVQSGAEVKKPGASVKVSCKASGYSFTGYFMHWVRQAPGQGLEWMGNIYPYNGVSNYNQRFKARVTMTTDTSTSTAYMELRSLRSDDTAVYYCARRYYYDTGPADWYFDVWGQGTLVTVSS
VL: DIQMTQSPSSLSASVGDRVTITCKASQDINSYLSWFQQKPGKAPKSLIYRANRLVDGVPSKFSGSGSGTDYTLTISSLQPEDFATYYCLQSDEFPLTFGQGTKLEIKR
ranking order top (1) to bottom (5), myostatin competition ELISA [9]: 5 | fold of affinity against F100G_Y [11]: ≤ 2 fold

B5: H2L2-C91S_G99S (antibody, human IgG1, kappa, name in Kabat numbering, V domains shown)
VH: QVQLVQSGAEVKKPGASVKVSCKASGYSFTGYFMHWVRQAPGQGLEWMGNIYPYNGVSNYNQRFKARVTMTTDTSTSTAYMELRSLRSDDTAVYYCARRYYYSTGPADWYFDVWGQGTLVTVSS
VL: DIQMTQSPSSLSASVGDRVTITCKASQDINSYLSWFQQKPGKAPKSLIYRANRLVDGVPSKFSGSGSGTDYTLTISSLQPEDFATYYCLQSDEFPLTFGQGTKLEIKR
fold of affinity against F100G_Y [11]: ≤ 2 fold

B6: H2L2-C91S_G100A_K (antibody, human IgG1, kappa, V domains shown)
VH: QVQLVQSGAEVKKPGASVKVSCKASGYSFTGYFMHWVRQAPGQGLEWMGNIYPYNGVSNYNQRFKARVTMTTDTSTSTAYMELRSLRSDDTAVYYCARRYYYGTKPADWYFDVWGQGTLVTVSS
VL: DIQMTQSPSSLSASVGDRVTITCKASQDINSYLSWFQQKPGKAPKSLIYRANRLVDGVPSKFSGSGSGTDYTLTISSLQPEDFATYYCLQSDEFPLTFGQGTKLEIKR
fold of affinity against F100G_Y [11]: ≤ 2 fold

B7: H2L2-C91S_P100B_F (antibody, human IgG1, kappa, V domains shown)
VH: QVQLVQSGAEVKKPGASVKVSCKASGYSFTGYFMHWVRQAPGQGLEWMGNIYPYNGVSNYNQRFKARVTMTTDTSTSTAYMELRSLRSDDTAVYYCARRYYYGTGFADWYFDVWGQGTLVTVSS
VL: DIQMTQSPSSLSASVGDRVTITCKASQDINSYLSWFQQKPGKAPKSLIYRANRLVDGVPSKFSGSGSGTDYTLTISSLQPEDFATYYCLQSDEFPLTFGQGTKLEIKR
ranking order top (1) to bottom (5), myostatin competition ELISA [7]: 1 | Mean IC50, A204 in vitro activity assay (5 nM myostatin) [8]: 4.24 nM | ranking order top (1) to bottom (5), myostatin competition ELISA [9]: 1

B8: H2L2-C91S_P100B_I (antibody, human IgG1, kappa, V domains shown)
VH: QVQLVQSGAEVKKPGASVKVSCKASGYSFTGYFMHWVRQAPGQGLEWMGNIYPYNGVSNYNQRFKARVTMTTDTSTSTAYMELRSLRSDDTAVYYCARRYYYGTGIADWYFDVWGQGTLVTVSS
VL: DIQMTQSPSSLSASVGDRVTITCKASQDINSYLSWFQQKPGKAPKSLIYRANRLVDGVPSKFSGSGSGTDYTLTISSLQPEDFATYYCLQSDEFPLTFGQGTKLEIKR
ranking order top (1) to bottom (5), myostatin competition ELISA [6]: 3 | ranking order top (1) to bottom (5), myostatin competition ELISA [7]: 5 | Mean IC50, A204 in vitro activity assay (5 nM myostatin) [8]: 4.53 nM

B9: H2L2-C91S_V102N (antibody, human IgG1, kappa, name in Kabat numbering, V domains shown)
VH: QVQLVQSGAEVKKPGASVKVSCKASGYSFTGYFMHWVRQAPGQGLEWMGNIYPYNGVSNYNQRFKARVTMTTDTSTSTAYMELRSLRSDDTAVYYCARRYYYGTGPADWYFDNWGQGTLVTVSS
VL: DIQMTQSPSSLSASVGDRVTITCKASQDINSYLSWFQQKPGKAPKSLIYRANRLVDGVPSKFSGSGSGTDYTLTISSLQPEDFATYYCLQSDEFPLTFGQGTKLEIKR
ranking order top (1) to bottom (5), myostatin competition ELISA [6]: 4 | ranking order top (1) to bottom (5), myostatin competition ELISA [7]: 3 | Mean IC50, A204 in vitro activity assay (5 nM myostatin) [8]: 5.51 nM | ranking order top (1) to bottom (5), myostatin competition ELISA [9]: 2 | fold of affinity against F100G_Y [11]: ≤ 2 fold

B10: H2L2-C91S_V102S (antibody, human IgG1, kappa, name in Kabat numbering, V domains shown)
VH: QVQLVQSGAEVKKPGASVKVSCKASGYSFTGYFMHWVRQAPGQGLEWMGNIYPYNGVSNYNQRFKARVTMTTDTSTSTAYMELRSLRSDDTAVYYCARRYYYGTGPADWYFDSWGQGTLVTVSS
VL: DIQMTQSPSSLSASVGDRVTITCKASQDINSYLSWFQQKPGKAPKSLIYRANRLVDGVPSKFSGSGSGTDYTLTISSLQPEDFATYYCLQSDEFPLTFGQGTKLEIKR
ranking order top (1) to bottom (5), myostatin competition ELISA [6]: 1 | ranking order top (1) to bottom (5), myostatin competition ELISA [7]: 4 | Mean IC50, A204 in vitro activity assay (5 nM myostatin) [8]: 4.22 nM | ranking order top (1) to bottom (5), myostatin competition ELISA [9]: 3 | fold of affinity against F100G_Y [11]: ≤ 2 fold

B11: H2L2-C91S_Y96L (antibody, human IgG1, kappa, name in Kabat numbering, V domains shown)
VH: QVQLVQSGAEVKKPGASVKVSCKASGYSFTGYFMHWVRQAPGQGLEWMGNIYPYNGVSNYNQRFKARVTMTTDTSTSTAYMELRSLRSDDTAVYYCARRLYYGTGPADWYFDVWGQGTLVTVSS
VL: DIQMTQSPSSLSASVGDRVTITCKASQDINSYLSWFQQKPGKAPKSLIYRANRLVDGVPSKFSGSGSGTDYTLTISSLQPEDFATYYCLQSDEFPLTFGQGTKLEIKR
ranking order top (1) to bottom (5), myostatin competition ELISA [6]: 5 | fold of affinity against F100G_Y [11]: ≤ 2 fold
